Measurements as given in article PMC10533412, “Phosphoantigens glue butyrophilin 3A1 and 2A1 to activate Vγ9Vδ2 T cells” (Nature, 2023).

How the values were obtained:
[1] = target: BTN3A1 B30.2 domain, O00481; test: ITC; conditions: chain shown with the change; with HMBPP
[2] = target: BTN3A1 B30.2 domain (human) (UniProt O00481)
BTN3A1 B30.2 domain (human), sequence (O00481 328-513): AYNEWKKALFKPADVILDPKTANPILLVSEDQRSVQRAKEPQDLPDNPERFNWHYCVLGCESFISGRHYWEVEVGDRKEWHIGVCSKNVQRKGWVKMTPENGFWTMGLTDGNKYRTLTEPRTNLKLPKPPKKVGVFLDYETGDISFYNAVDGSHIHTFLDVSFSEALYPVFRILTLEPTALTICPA

BTN3A1 B30.2 domain, O00481, sequence (O00481 328-513): as above

| Kd [1] [nM] | AFM-SCFS binding force between a Vγ9Vδ2 T cell and a MIA PaCa-2 cell, without and with HMBPP treatment [2] [pN] | Binder |
| --- | --- | --- |
| 189 | – | BTN2A2 B30.2 domain, Q8WVV5 W374R; M506T (protein) EELRWRRTFLHAADVVLDPDTAHPELFLSEDRRSVRRGPYRQRVPDNPERFDSQPCVLGRESFASGKHYWEVEVENVMVWTVGVCRHSVERKGEVLLIPQNGFWTLEMFGNQYRALSSPERILPLKESLCRVGVFLDYEAGDVSFYNMRDRSHIYTCPRSAFTVPVRPFFRLGSDDSPIFICPALTGASGVTVPEEGLKLHRVGTHQSL |
| – | 1550 | BTN2A1 B30.2 domain (domain or fragment) EELRWRRTFLHAVDVVLDPDTAHPDLFLSEDRRSVRRCPFRHLGESVPDNPERFDSQPCVLGRESFASGKHYWEVEVENVIEWTVGVCRDSVERKGEVLLIPQNGFWTLEMHKGQYRAVSSPDRILPLKESLCRVGVFLDYEAGDVSFYNMRDRSHIYTCPRSAFSVPVRPFFRLGCEDSPIFICPALTGANGVTVPEEGLTLHRVGTHQSL |
